Reference: US9107936B2, “Antagonists of GRASP55 for use as a medicament” (Institut National de la Sante et de la Recherche Medicale …, priority 2012, dated 2015)
Blank lines part the entries; values can stand above or below the compound they belong to. Where no end group is shown, it is not given here.

Key:
JAM-C = target: T1, JAM-C (Mus musculus, UniProt Q9D8B7); assay: yeast two hybrid interaction of Grasp55 constructs with JAM-C; format: binding, murine; set-up: key: Symbols “+++” and “−” indicates the growth of yeast on selective media as shown in the FIGURE 13; Symbols “+++” and “−” indicates the growth of yeast on selective media as shown in the FIGURE 13
T1 construct: amino-acids 263 to 310 of murine JAM-C; expressed in transfected cells; host or cells: AH109 yeast strain
T1 sequence (Q9D8B7 263-310): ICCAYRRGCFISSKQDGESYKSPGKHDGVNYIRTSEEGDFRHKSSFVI
Excerpt: (§1) The different GRASP55 constructs were cloned into pGBT9 GW vector (Ga14 DNA-binding domain fusion vector, Trp) as well in the pACT2 GW vector (Gal4 DNA-activation domain fusion vector, Leu) using the Gateway technology (Invitrogen). Plasmids were then co-transformed in AH109 yeast strain (/MATa, trp1-901, leu2-3, 112, ura3-52, his3-200, gal4/A, /gal80/A, /LYS2::GAL1//UAS//-GAL1//TATA//-HIS3, GAL2//UAS//-GAL2//TATA//-ADE2, URA3::MEL1//UAS//-MEL1//TATA//-lacZ, MEL1/) in accordance with the previously described transformation protocol (Chien et al. 1991. Proc Natl Acad Sci USA. 88:9578-82). Following co-transformation with the two vectors containing the different constructs (as well as the empty vector to test self activation), yeasts were plated onto Synthetic Complete (SC) medium minus Leucine (−L), minus Tryptophan (−W), minus Histidine (−H) and incubated at 30° C. for 4 to 5 days. All yeast media were prepared as previously described.
(§2) In examples 2, the inventors have previously shown that interaction between Grasp55 and C-terminal part of JAM-C requires the peptidic sequence between residues 1 to 160 of Grasp55 (PDZI+II) but cannot occur with residues 1 to 79 of Grasp55 (PDZI) by yeast two hybrid and ELISA assay (FIGS. 2 and 8). In the present example, the interaction sites between JAMs or metalloproteinases involved in JAM regulation and Grasp55 have been mapped using new constructs. To this end, yeast two-hybrid and GST fusion proteins encompassing residues 1 to 107, 108 to 208, and 1 to 208 corresponding respectively to the PDZI′, PDZII′ and PDZI′+II′ constructs have been generated. The former PDZII construct (residues 80 to 160) have also been used to test interaction with the C-terminal sequences of ADAM 10 (of sequence SEQ ID NO: 41) and ADAM 17 (of sequence SEQ ID NO: 42) known to regulate JAM-A and JAM-C release (Table 1). GST fusion proteins were produced and yeast two-hybrid assay was performed as previously described in example 1.

JAM-C ΔPDZbm = target: T2, JAM-C ΔPDZbm (Mus musculus, UniProt Q9D8B7); assay: yeast two hybrid interaction of Grasp55 constructs with JAM-C ΔPDZbm; format: binding, murine; set-up: key: Symbols “+++” and “−” indicates the growth of yeast on selective media as shown in the FIGURE 13; Symbols “+++” and “−” indicates the growth of yeast on selective media as shown in the FIGURE 13
T2 construct: amino-acids 263 to 310 of murine JAM-C; expressed in transfected cells; host or cells: AH109 yeast strain
T2 sequence (Q9D8B7 263-307 limits assumed): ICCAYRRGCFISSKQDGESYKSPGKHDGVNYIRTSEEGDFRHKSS
Excerpt: as §1, §2

ADAM10 = target: T3, ADAM10 (Mus musculus, UniProt O35598, DEL741-741); assay: yeast two hybrid interaction of Grasp55 constructs with ADAM10 C-terminal sequence; format: binding, murine; set-up: key: Symbols “+++” and “−” indicates the growth of yeast on selective media as shown in the FIGURE 13; Symbols “+++” and “−” indicates the growth of yeast on selective media as shown in the FIGURE 13
T3 construct: expressed in transfected cells; host or cells: AH109 yeast strain
T3 sequence (O35598 with tags, fused parts or gaps DEL741-741): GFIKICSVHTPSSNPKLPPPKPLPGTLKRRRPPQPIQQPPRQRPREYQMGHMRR
Excerpt: as §1, §2

ADAM17 = target: T4, ADAM17 (Mus musculus, UniProt Q9Z0F8, A775V/P752S); assay: yeast two hybrid interaction of Grasp55 constructs with ADAM17 C-terminal sequence; format: binding, murine; set-up: key: Symbols “+++” and “−” indicates the growth of yeast on selective media as shown in the FIGURE 13; Symbols “+++” and “−” indicates the growth of yeast on selective media as shown in the FIGURE 13
T4 construct: expressed in transfected cells; host or cells: AH109 yeast strain
T4 sequence (Q9Z0F8 693-827 P752S/A775V): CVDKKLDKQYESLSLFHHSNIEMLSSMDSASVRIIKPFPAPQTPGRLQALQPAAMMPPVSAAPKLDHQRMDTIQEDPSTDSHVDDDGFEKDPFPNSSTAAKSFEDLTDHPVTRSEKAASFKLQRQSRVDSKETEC
Excerpt: as §1, §2

[1] = target: T5, GST-PDZI′ (Grasp55 residues 1 to 107) (Mus musculus, UniProt Q99JX3); assay: HTRF measurement of interaction of biotinylated C-terminal peptides with GST-PDZI′; format: binding, murine; settings: for which Grasp55 construct's interaction with JAM-C is inhibited: NINDS library screening, PDZI′ and PDZI′+II′ recombinant GST proteins; for interaction of biotinylated peptide with PDZI′ GST construct: peptide 1.9*10^−7M
T5 construct: GST fusion proteins encompassing residues 1 to 107; made in house; host or cells: bacteria Rosetta
Method: (§3) To refine and extend the results obtained by yeast two hybrid, an Homogenous Time Resolved Fluorescence (HTRF) assay have been set-up to measure interactions of various peptides with recombinant GST proteins corresponding to different regions of Grasp55.
(§4) Briefly, the technique consisted in incubating 18 h at 4° C. the biotinylated-Cterminal peptides (SEQ ID NO: 26 to 34) at the concentration of 1.9*10^−7M with the GST-fusion protein, the terbium-coupled anti-GST antibody (8*10^−10M each) and the d2-coupled streptavidin (4*10^−8M) (both from Cisbio), in 0.1 mL of Hepes 0.05M, NaCl 0.15M BSA 0.1% pH 7.2. In some experiments, competing peptide or chemicals were added to the incubation mix at the indicated concentration. After incubation, microtiter plates (Costar #3693) were red using PolarScan Omega (BMG Labtech) equipped for HTRF measurements. Upon excitation at 320 nm, a 620 nm fluorescence emission is produced by the donor terbium that in turn excites a 665 nm light emission by a Streptavidin-d2 (acceptor) bound to the Biotinylated interacting Peptide if the latter is interacting with the donor. The […] R ratio is obtained and a Delta F is computed as: [(Rsample−RNSB)/RNSB]*100 where RNSB is the Non Specific Background signal determined in incubates where the GST-fusion protein was omitted.
(§5) Having shown that HTRF measurement of interaction is a reliable technology to identify inhibitors of interaction. A screen of a chemical compound library provided by MRCt has been initiated. The screening consisted in the same HTRF technique used in Example 7 except that compounds from the library were added in the incubation mix at the final concentration of 6.6×10^−5M. […] Since such a result could be either due to a specific inhibition of the JAM-C peptide interaction to the recombinant Grasp55 PDZ domains or to a non-specific inhibition of the FRET signal between donor and acceptor in HTRF technology, the twenty selected compounds have been further tested. Indeed, compounds could potentially interfere with the binding of the anti-GST antibody terbium-labeled to the GST of the fusion protein, the binding of Streptavidin-d2 to the biotinylated peptide or promote strong interference at 320, […] or 665 nm. Thus, the putative hits obtained were screened for non-specific inhibition. To this end, the GST-PDZI′+II′ recombinant protein was biotinylated using Sulfo-NHS Biotin according to manufacturer instructions (Pierce). This allows designing an HTRF assay in which the d2-coupled streptavidin (acceptor) and the terbium-coupled anti-GST antibody are directly bound to recombinant GST-PDZI′+II′ protein and produce DeltaF signal independently of the biotinylated peptide. The twenty selected compounds were thus tested in this assay to eliminate those giving false inhibition of the HTRF signals while inhibitors of Biotinylated peptide interaction with GST-PDZI′+II′ should not interfere in this assay.

[2] = target: T6, GST-PDZI′+II′ (Grasp55 residues 1 to 208) (Mus musculus, UniProt Q99JX3); assay: HTRF measurement of interaction of biotinylated C-terminal peptides with GST-PDZI′+II′; format: binding, murine; settings: for interaction of biotinylated peptide with PDZI′+II′ GST construct: peptide 1.9*10^−7M
T6 construct: and 1 to 208 corresponding respectively to the PDZI′, PDZII′ and PDZI′+II′ constructs; made in house; host or cells: bacteria Rosetta
Method: as §3, §4, §5

B16F10 cells = assay: wound healing assay (cell migration); format: cell-based, mouse; settings: siRNA, 48 h post-transfection, measured over 6 h; sicontrol 167±13; Mean+/−SEM
Method: Transient transfections were performed on a 50% confluent monolayer of B16F10 cells with either 10 nM of siRNA or 5 μg of shRNA against luciferase used as a control or shRNA against GRASP55 in Lipofectamine RNAimax (Invitrogen). Transfection efficiency was monitored at 24 h by qRT-PCR and Western blots for the expression of GRASP55 transcript or protein. For selection of stable transfectants, cells were grown in DMEM containing 10 μg/ml of puromycine (Sigma Aldrich) starting 48 h after transfection.
For in vitro wound healing assays, 80% confluent monolayers of wild-type B16F10 cells or B16F10 cells transfected with various siRNA or shRNA were grown in both chambers of Ibidi culture inserts with defined cell free gaps. Cells were subjected to serum starvation for 24 h, before wounds were created by removing Ibidi culture inserts that define cell gaps of 400 μm. The wound healing was carried out for 8 h in complete DMEM medium and was recorded at various times after wounding. Analysis of wound closure was performed using Metamorph software and is expressed as mean speed per minute.

[3] = competition with unlabelled JAM-C peptide

interaction with JAM-C (yeast growth on selective media) (JAM-C): +++
interaction with JAM-C ΔPDZbm (yeast growth on selective media) (JAM-C ΔPDZbm): −
interaction with ADAM10 (yeast growth on selective media) (ADAM10): −
interaction with ADAM17 (yeast growth on selective media) (ADAM17): −
Compound: PDZI′ + II′: Grasp55 construct, residues 1 to 208

interaction of biotinylated peptide with PDZI′+II′ GST construct [2]: no signal over the background
Compound: ΔPDZbm: control biotynilated JAM-C peptide lacking the three terminal amino-acids (SEQ ID NO: 31) (NYIRTSEEGDFRHKSS; also: biotinylated)

interaction with JAM-C (yeast growth on selective media) (JAM-C): −
interaction with JAM-C ΔPDZbm (yeast growth on selective media) (JAM-C ΔPDZbm): −
interaction with ADAM10 (yeast growth on selective media) (ADAM10): −
interaction with ADAM17 (yeast growth on selective media) (ADAM17): −
Compound: PDZII′: Grasp55 construct, residues 108 to 208

interaction of biotinylated peptide with PDZI′ GST construct [1]: confirmed
AppAff for GST-PDZI′+II′ compared with GST-PDZI′ [2, 3]: higher AppAff
interaction of biotinylated peptide with PDZI′+II′ GST construct [2]: confirmed
Compound: JAM-A: biotinylated C-terminal peptide of JAM-A (SQPSTRSEGEFKQTSSFLV; also: biotinylated)
apparent affinity (AppAff) compared with JAM-C ([2]; competition with unlabelled JAM-C peptide, GST-PDZI′ and GST-PDZI′+II′): AppAff of JAM-C is equal to AppAff of JAM-A

interaction of biotinylated peptide with PDZI′ GST construct [1]: confirmed
AppAff for GST-PDZI′+II′ compared with GST-PDZI′ [2, 3]: higher AppAff
interaction of biotinylated peptide with PDZI′+II′ GST construct [2]: confirmed
Compound: JAM-C: biotinylated C-terminal peptide of JAM-C (NYIRTSEEGDFRHKSSFVI; also: biotin)

interaction with JAM-C (yeast growth on selective media) (JAM-C): +++
interaction with JAM-C ΔPDZbm (yeast growth on selective media) (JAM-C ΔPDZbm): −
interaction with ADAM10 (yeast growth on selective media) (ADAM10): −
interaction with ADAM17 (yeast growth on selective media) (ADAM17): −
Compound: PDZI′: Grasp55 construct, residues 1 to 107

More lines, now with the values behind:

Compound: CCN(CC)C(=S)SSC(=S)N(CC)CC [Disulfiram, 1,1′,1″,1′″-[disulfanediylbis(carbonothioylnitrilo)]tetraethane]
which Grasp55 construct's interaction with JAM-C is inhibited [1]: only with PDZI′+II′

Compound: O=c1oc2c(O)c(O)cc3c(=O)oc4c(O)c(O)cc1c4c23 [Ellagic acid, 2,3,7,8-Tetrahydroxy-chromeno[5,4,3-cde]chromene-5,10-dione]
which Grasp55 construct's interaction with JAM-C is inhibited [1]: inhibit interaction with PDZI′ and PDZI′+II′

Compound: siGRASP55#01: siRNA targeting Grasp55, SEQ ID NO: 6, 5′CGUCAUGAAUGAGUCUGAATT 3′, from Ambion (chemistry not given here)
mean velocity (B16F10 cells): 82 ± 4 nm/min

Compound: N.N.O=C([O-])C1(C(=O)[O-])CCC1.[Pt+2] [Carboplatin, cis-Diammine(1,1-cyclobutanedicarboxylato)platinum(II)]
which Grasp55 construct's interaction with JAM-C is inhibited [1]: preferentially inhibit the interaction of JAM-C with PDZI′

Compound: siGRASP55#1: siRNA targeting Grasp55, SEQ ID NO: 7, 5′AAGUGAUCAUCACACCAAATT 3′, from Ambion (chemistry not given here)
mean velocity (B16F10 cells): 95 ± 8 nm/min
